Experimental data taken from article PMC10495343.

Columns and labels:
[1] = target: collagen I (UniProt P02452); test: SPR
[2] = target: collagen I (UniProt P02452); test: SPR; Biacore X100; collagen I or collagen III immobilised by amine coupling on a CM5 chip (around 1000 RU); CBD-SA-IL-4 flowed 90 s (collagen I) or 30 s (collagen III) at 30 μl/min; Langmuir 1:1 fit with drifting baseline
[3] = target: collagen III (UniProt P02461); test: as above
collagen III, sequence (P02461 154-1221): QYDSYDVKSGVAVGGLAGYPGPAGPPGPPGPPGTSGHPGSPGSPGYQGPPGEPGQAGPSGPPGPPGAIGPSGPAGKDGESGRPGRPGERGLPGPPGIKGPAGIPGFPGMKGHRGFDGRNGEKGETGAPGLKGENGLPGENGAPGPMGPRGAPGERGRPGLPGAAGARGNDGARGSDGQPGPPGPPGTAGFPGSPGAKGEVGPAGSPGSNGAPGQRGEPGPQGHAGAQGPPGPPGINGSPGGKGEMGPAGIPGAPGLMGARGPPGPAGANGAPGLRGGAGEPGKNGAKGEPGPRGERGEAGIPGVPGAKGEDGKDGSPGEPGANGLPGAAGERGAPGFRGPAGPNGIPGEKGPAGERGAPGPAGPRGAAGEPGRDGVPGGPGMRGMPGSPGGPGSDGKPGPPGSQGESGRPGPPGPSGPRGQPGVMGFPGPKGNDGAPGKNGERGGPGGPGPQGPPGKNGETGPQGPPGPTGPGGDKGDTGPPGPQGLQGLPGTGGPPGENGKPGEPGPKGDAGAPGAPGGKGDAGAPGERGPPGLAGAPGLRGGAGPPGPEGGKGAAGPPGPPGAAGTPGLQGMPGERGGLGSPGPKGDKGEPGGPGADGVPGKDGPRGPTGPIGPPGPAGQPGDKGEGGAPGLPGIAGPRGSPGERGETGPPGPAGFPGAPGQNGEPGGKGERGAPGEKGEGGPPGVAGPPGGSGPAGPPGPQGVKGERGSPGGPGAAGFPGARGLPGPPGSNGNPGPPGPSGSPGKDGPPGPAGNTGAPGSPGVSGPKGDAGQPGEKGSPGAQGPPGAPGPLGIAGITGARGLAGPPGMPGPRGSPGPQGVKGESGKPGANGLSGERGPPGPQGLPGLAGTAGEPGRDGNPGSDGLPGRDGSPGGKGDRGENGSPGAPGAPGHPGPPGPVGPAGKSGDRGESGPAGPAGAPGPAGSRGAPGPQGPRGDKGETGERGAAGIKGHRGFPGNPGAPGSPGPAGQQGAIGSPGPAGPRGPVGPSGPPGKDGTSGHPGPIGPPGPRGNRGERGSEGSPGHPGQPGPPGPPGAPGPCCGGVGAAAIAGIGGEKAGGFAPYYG

collagen I, sequence (P02452 162-1218, chain 1 of 2): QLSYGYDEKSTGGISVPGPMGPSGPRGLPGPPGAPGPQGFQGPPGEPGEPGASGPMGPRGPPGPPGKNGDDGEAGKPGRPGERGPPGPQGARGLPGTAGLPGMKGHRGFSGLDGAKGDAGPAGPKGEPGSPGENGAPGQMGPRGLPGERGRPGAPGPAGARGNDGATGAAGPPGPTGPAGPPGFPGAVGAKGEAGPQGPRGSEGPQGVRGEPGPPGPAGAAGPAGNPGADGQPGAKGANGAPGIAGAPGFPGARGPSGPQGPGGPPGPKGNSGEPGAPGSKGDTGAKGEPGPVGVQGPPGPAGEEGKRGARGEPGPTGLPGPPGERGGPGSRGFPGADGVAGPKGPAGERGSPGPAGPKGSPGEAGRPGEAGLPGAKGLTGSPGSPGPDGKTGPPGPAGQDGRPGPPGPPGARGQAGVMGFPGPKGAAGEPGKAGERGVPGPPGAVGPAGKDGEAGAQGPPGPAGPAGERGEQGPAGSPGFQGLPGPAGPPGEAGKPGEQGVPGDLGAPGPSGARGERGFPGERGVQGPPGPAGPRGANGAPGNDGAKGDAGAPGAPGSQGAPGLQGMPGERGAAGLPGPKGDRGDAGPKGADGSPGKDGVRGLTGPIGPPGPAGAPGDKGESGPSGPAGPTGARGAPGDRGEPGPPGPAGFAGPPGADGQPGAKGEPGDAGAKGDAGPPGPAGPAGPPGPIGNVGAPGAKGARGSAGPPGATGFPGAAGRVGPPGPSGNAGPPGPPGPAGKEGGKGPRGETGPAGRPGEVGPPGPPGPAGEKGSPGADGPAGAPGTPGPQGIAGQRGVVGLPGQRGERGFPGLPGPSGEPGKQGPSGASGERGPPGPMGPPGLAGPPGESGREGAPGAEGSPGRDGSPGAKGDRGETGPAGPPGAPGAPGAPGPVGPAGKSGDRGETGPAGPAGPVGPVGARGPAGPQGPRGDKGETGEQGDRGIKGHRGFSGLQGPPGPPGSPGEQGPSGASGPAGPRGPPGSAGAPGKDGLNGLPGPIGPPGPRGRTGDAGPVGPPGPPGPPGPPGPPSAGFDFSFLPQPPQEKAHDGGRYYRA
collagen I, sequence (P08123 80-1119, chain 2 of 2, further chain): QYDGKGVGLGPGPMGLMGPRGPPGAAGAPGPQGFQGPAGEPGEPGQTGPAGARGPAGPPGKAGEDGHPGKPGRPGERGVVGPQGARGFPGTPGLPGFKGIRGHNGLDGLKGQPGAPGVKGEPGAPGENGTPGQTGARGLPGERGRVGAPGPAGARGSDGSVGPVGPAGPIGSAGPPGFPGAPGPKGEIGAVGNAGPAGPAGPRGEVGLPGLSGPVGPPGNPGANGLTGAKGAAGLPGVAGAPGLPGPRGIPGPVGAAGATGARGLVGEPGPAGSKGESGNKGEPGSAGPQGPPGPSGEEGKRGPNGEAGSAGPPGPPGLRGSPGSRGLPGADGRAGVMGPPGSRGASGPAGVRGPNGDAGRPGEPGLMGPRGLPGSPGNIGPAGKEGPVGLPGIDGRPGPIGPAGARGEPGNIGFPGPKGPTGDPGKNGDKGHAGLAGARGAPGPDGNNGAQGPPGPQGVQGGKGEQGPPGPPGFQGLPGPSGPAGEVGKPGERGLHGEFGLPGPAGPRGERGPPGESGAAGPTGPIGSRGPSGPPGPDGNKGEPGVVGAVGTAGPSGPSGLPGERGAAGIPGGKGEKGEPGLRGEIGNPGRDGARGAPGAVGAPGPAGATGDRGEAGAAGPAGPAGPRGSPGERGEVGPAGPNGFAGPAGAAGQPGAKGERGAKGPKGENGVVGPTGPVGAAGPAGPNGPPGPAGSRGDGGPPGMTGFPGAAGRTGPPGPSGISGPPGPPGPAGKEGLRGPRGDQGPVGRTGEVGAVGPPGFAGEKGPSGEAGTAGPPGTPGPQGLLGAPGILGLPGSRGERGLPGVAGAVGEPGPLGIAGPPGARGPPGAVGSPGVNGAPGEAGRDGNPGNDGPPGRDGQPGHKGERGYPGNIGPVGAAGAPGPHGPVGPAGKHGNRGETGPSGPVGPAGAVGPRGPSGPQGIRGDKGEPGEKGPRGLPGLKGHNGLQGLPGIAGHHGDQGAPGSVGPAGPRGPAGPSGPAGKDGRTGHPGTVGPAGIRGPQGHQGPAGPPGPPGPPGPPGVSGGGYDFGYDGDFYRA

| koff [1] | Kd [2] | Kd [3] | Substance |
| --- | --- | --- | --- |
| 0.0026 s⁻¹ |  |  | collagen-binding, serum albumin-fused IL-4 variant (CBD-SA-IL-4) (from UniProt P04275) |
|  | 8 nM | 37 nM | collagen-binding, serum albumin-fused IL-4 variant (CBD-SA-IL-4) |
